According to US20260042831A1 (XENTRIA, published 2026):
Where “and” joins values, the source holds several entries; their conditions need not be identical. Equal values may be shown once.

Assays:
FcγRI [1] = target: T1, FcγRI (UniProt P12314 16-288, limits assumed); experiment: Octet QK384, FcγRI on Ni-NTA biosensors; range stated for the batches
T1 construct: It was immobilized on Ni-NTA biosensors, which implies a His tag; The ELISA paragraph calls it 'His tab-labeled recombinant purified FcγRI'; also called CD64

His-tagged FcγRIIIa = target: T2, His-tagged FcγRIIIa (UniProt P08637 17-208, limits assumed); experiment: Octet QK384, steady-state KD from binding curves; range stated for the batches
T2 construct: His-tagged and captured on anti-penta-His biosensors; also called CD16

TNFα from rhesus monkey = TNFα from rhesus monkey (rhesus monkey, UniProt P48094 77-233); experiment: ELISA, cross-species binding studies
TNFα from dog = TNFα from dog (dog, UniProt P51742 77-233); experiment: ELISA, cross-species binding studies
[2] = target: TNFα from cynomolgus monkey (cynomolgus monkey, UniProt P79337 77-233, limits assumed); experiment: ELISA, cross-species binding studies
TNFα from rat = target: T3, TNFα from rat (rat, UniProt P16599 80-235); experiment: ELISA, cross-species binding studies
T3 sequence (looked up): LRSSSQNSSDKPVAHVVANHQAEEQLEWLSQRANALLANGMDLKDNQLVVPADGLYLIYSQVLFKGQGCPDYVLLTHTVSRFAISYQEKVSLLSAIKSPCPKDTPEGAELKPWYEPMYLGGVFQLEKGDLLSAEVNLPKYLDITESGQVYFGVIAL

FcγRI [3] = target: T1, FcγRI; experiment: Octet QK384, FcγRI on Ni-NTA biosensors, 7 XTMAB-16 concentrations, 1:1 model fit

T1 sequence (P12314 16-288 limits assumed): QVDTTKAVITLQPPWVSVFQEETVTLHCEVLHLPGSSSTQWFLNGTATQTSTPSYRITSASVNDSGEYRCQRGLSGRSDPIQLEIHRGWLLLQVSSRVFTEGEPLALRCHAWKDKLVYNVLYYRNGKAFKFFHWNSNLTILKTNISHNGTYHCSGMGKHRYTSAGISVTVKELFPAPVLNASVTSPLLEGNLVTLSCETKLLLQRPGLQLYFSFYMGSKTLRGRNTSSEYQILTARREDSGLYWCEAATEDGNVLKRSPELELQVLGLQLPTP
TNFα from cynomolgus monkey, sequence (P79337 77-233 limits assumed): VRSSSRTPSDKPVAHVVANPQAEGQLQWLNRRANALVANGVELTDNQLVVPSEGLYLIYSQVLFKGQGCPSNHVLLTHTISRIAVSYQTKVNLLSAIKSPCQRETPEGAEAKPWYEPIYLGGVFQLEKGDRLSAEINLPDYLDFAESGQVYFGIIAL
T2 sequence (P08637 17-208 limits assumed): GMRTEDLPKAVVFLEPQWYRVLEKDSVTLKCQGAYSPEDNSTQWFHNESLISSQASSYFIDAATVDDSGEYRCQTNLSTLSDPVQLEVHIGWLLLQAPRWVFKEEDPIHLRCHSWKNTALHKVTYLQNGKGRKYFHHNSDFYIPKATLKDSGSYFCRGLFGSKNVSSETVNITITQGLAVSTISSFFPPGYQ
TNFα from rhesus monkey, sequence (P48094 77-233 limits assumed): as the sequence (P79337 77-233 limits assumed) above, with V37L counted along it
TNFα from dog, sequence (P51742 77-233 limits assumed): as the sequence (P79337 77-233 limits assumed) above, with R2K, Q21E, N30S, V37L, V49I, E53D, N72T, I83F, A109T, D140N counted along it

Kd (FcγRI [1]): 500 pM and 900 pM | Kd (His-tagged FcγRIIIa): 300000 pM | binding result (TNFα from rhesus monkey): no binding | binding result (TNFα from dog): no binding | binding result [2]: no binding | binding result (TNFα from rat): no binding | Kd (FcγRI [3]): 680 pM and 630 pM
B1: XTMAB-16 (antibody, human IgG1, kappa)
heavy: not shown
light: DILLTQSPAILSVSPGERVSFSCRASQFVGSSIHWYQQRTNGSPRLLIKYASESMSGIPSRFSGSGSGTDFTLSINTVESEDIADYYCQQSHSWPFTFGSGTNLEVKRTVAAPSVFIFPPSDEQLKSGTASVVCLLNNFYPREAKVQWKVDNALQSGNSQESVTEQDSKDSTYSLSSTLTLSKADYEKHKVYACEVTHQGLSSPVTKSFNRGEC
notes: The general description says the antibody is sialylated with N-acetylneuraminic acid (Asn 297 in embodiments) and glycosylated at Asn 300; All batches (A-H); also called XTMB-16
